Measurements taken from patent US20100184134A1 (SUTRO BIOPHARMA, published 2010).

Tests used:
[1] = biological target: T1, E. coli PheT subunit of phenylalanyl-tRNA synthetase (E. coli, UniProt P07395 1-795); assay: IMAC pull-down of cell-free produced PheRS(A294G)
T1 construct: also called PheT domain
T1 sequence: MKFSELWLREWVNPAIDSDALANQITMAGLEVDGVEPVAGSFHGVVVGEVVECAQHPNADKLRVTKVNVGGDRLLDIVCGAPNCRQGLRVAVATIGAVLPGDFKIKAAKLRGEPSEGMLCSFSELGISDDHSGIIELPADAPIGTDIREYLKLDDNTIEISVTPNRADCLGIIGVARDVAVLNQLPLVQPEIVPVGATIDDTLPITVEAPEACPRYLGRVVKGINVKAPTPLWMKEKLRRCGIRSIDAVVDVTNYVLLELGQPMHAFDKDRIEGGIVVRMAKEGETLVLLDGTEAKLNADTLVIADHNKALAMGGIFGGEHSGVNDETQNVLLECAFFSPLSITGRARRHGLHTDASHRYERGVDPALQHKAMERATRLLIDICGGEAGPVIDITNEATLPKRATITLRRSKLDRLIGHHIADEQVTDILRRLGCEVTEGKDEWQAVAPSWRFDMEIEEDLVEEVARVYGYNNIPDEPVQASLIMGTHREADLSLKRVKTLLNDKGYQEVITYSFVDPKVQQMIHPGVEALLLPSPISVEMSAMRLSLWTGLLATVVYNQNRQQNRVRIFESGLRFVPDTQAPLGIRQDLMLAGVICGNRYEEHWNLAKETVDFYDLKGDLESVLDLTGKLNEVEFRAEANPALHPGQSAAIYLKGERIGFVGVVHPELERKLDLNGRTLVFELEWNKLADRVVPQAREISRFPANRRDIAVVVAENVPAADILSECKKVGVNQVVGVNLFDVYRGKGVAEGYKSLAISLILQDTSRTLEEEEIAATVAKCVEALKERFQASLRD

PheT MP = biological target: T2, PheT MP (E. coli, UniProt P07395 1-795); assay: IMAC co-purification after cell-free co-synthesis of PheS(A294G) and PheT variant
T2 construct: also called PheT R794M R788P
T2 sequence: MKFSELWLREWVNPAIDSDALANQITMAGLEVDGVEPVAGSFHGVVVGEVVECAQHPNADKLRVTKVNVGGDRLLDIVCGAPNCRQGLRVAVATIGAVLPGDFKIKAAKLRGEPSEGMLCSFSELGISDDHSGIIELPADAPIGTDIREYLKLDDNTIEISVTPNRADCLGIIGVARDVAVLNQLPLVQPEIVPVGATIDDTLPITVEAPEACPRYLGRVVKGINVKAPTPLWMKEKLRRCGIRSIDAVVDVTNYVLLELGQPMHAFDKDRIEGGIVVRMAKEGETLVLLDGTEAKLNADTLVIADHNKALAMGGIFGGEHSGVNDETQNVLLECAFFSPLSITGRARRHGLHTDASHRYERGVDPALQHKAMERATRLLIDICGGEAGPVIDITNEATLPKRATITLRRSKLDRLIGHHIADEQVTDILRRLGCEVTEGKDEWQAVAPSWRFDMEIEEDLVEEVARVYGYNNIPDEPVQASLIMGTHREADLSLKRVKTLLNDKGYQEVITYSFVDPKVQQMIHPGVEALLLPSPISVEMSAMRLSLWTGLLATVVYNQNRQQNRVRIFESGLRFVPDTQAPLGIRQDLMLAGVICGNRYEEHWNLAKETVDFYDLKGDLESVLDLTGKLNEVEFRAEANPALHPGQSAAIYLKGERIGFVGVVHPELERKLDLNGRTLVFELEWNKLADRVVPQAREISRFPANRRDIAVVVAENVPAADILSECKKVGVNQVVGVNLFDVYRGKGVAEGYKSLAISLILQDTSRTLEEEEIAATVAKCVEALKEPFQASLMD

PheT AP = biological target: T3, PheT AP (E. coli, UniProt P07395 1-795); assay: as above
T3 construct: also called PheT R794A A791P
T3 sequence: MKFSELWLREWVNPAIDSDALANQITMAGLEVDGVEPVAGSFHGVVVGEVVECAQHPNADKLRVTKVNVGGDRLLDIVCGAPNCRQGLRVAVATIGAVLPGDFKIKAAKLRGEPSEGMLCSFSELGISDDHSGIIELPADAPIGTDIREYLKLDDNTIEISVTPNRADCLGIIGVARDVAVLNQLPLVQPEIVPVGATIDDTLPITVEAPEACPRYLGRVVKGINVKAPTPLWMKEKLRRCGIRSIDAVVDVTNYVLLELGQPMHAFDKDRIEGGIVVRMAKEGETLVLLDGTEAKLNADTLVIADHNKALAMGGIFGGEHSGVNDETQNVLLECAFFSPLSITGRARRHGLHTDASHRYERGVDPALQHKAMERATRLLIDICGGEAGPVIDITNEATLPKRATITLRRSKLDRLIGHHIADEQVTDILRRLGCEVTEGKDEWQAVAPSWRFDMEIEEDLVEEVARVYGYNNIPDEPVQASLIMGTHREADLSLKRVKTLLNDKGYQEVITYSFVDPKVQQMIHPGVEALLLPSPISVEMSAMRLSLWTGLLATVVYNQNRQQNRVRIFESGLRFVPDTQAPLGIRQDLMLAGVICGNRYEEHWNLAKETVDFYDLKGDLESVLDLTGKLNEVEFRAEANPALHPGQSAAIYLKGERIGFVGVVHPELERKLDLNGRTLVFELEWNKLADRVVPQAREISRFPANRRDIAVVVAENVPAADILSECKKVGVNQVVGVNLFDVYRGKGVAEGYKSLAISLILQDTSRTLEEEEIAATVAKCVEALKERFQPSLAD

PheT K = biological target: T4, PheT K (E. coli, UniProt P07395 1-795); assay: as above
T4 construct: also called PheT R794K
T4 sequence: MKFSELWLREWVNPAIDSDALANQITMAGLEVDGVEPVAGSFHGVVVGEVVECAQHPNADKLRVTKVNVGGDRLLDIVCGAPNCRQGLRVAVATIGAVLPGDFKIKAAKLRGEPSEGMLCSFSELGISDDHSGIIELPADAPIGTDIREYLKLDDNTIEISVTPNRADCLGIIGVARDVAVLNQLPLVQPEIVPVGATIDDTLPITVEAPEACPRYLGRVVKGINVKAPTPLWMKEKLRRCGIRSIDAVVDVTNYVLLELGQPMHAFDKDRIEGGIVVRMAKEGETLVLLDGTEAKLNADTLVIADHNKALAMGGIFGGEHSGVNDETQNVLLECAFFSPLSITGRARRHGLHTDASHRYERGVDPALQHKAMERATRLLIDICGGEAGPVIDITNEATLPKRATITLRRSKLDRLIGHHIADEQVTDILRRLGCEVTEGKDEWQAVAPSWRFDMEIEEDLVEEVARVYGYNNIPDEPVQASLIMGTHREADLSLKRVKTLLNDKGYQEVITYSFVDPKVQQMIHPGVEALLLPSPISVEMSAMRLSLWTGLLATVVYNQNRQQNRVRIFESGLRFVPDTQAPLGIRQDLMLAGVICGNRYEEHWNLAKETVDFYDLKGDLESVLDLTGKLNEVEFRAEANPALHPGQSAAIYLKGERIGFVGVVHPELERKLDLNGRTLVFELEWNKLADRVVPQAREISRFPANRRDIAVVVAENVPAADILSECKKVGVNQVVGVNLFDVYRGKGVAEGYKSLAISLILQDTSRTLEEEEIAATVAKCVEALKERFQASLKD

PheT KV = biological target: T5, PheT KV (E. coli, UniProt P07395 1-795); assay: as above
T5 construct: also called PheT R794K A15V
T5 sequence: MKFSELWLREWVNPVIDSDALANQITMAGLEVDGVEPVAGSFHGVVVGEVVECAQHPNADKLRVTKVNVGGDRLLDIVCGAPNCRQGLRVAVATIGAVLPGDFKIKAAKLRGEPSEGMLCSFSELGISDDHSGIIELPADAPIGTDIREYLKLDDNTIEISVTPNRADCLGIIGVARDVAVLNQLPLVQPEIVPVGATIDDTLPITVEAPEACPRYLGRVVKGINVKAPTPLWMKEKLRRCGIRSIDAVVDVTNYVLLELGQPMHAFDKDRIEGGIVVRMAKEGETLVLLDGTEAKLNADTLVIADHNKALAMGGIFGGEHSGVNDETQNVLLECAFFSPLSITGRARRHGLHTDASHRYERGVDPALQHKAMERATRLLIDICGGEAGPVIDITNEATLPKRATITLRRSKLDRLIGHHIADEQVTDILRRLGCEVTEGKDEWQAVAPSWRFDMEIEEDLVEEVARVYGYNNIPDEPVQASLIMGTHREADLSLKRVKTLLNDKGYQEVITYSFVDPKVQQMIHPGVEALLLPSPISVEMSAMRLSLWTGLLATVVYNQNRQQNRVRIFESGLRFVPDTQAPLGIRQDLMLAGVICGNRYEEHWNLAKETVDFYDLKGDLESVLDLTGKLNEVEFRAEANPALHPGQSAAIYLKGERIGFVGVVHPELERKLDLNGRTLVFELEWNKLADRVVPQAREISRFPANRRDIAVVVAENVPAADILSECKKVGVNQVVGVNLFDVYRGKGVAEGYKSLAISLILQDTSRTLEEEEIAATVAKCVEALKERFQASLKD

Measured: binding result

B1: 6X His-tagged E. coli PheS(A294G) subunit of phenylalanyl-tRNA synthetase (enzyme)
chain: MSHLAELVASAKAAISQASDVAALDNVRVEYLGKKGHLTLQMTTLRELPPEERPAAGAVINEAKEQVQQALNARKAELESAALNARLAAETIDVSLPGRRIENGGLHPVTRTIDRIESFFGELGFTVATGPEIEDDYHNFDALNIPGHHPARADHDTFWFDTTRLLRTQTSGVQIRTMKAQQPPIRIIAPGRVYRNDYDQTHTPMFHQMEGLIVDTNISFTNLKGTLHDFLRNFFEEDLQIRFRPSYFPFTEPSAEVDVMGKNGKWLEVLGCGMVHPNVLRNVGIDPEVYSGFGFGMGMERLTMLRYGVTDLRSFFENDLRFLKQFK
notes: also called 6XHisPheS(A294G); PheS(A294G) domain
binds: all assays above
